Data taken from patent US20040022772A1 (University of Texas, published 2004).

Molecular target: T1, p185 BCR-ABL (human, UniProt P00519 27-1130)
T1 construct: Endogenous protein of the SUP-B15 ALL cell line; also called Bcr-Abl oncoprotein (SUP-B15 cells)
Experiment: co-precipitation of Bcr-Abl with Bcr by anti-BCR (1256-1271), immunokinase assay, SUP-B15 cells
Experimental: The effects of the sense and antisense 3′ BCR oligonucleotides were tested on BCR expression in SUP-Bi5 cells, a cell line derived from a Ph¹-positive acute lymphocytic leukemia patient that expresses p185 BCR—ABL.
In this study, equal amounts of the sense and the antisense oligonucleotide treated B15 cells were analyzed.

B1: p160 BCR (enzyme, human, UniProt P11274 1-1271, looked up)
chain: MVDPVGFAEAWKAQFPDSEPPRMELRSVGDIEQELERCKASIRRLEQEVNQERFRMIYLQTLLAKEKKSYDRQRWGFRRAAQAPDGASEPRASASRPQPAPADGADPPPAEEPEARPDGEGSPGKARPGTARRPGAAASGERDDRGPPASVAALRSNFERIRKGHGQPGADAEKPFYVNVEFHHERGLVKVNDKEVSDRISSLGSQAMQMERKKSQHGAGSSVGDASRPPYRGRSSESSCGVDGDYEDAELNPRFLKDNLIDANGGSRPPWPPLEYQPYQSIYVGGMMEGEGKGPLLRSQSTSEQEKRLTWPRRSYSPRSFEDCGGGYTPDCSSNENLTSSEEDFSSGQSSRVSPSPTTYRMFRDKSRSPSQNSQQSFDSSSPPTPQCHKRHRHCPVVVSEATIVGVRKTGQIWPNDGEGAFHGDADGSFGTPPGYGCAADRAEEQRRHQDGLPYIDDSPSSSPHLSSKGRGSRDALVSGALESTKASELDLEKGLEMRKWVLSGILASEETYLSHLEALLLPMKPLKAAATTSQPVLTSQQIETIFFKVPELYEIHKEFYDGLFPRVQQWSHQQRVGDLFQKLASQLGVYRAFVDNYGVAMEMAEKCCQANAQFAEISENLRARSNKDAKDPTTKNSLETLLYKPVDRVTRSTLVLHDLLKHTPASHPDHPLLQDALRISQNFLSSINEEITPRRQSMTVKKGEHRQLLKDSFMVELVEGARKLRHVFLFTDLLLCTKLKKQSGGKTQQYDCKWYIPLTDLSFQMVDELEAVPNIPLVPDEELDALKIKISQIKNDIQREKRANKGSKATERLKKKLSEQESLLLLMSPSMAFRVHSRNGKSYTFLISSDYERAEWRENIREQQKKCFRSFSLTSVELQMLTNSCVKLQTVHSIPLTINKEDDESPGLYGFLNVIVHSATGFKQSSNLYCTLEVDSFGYFVNKAKTRVYRDTAEPNWNEEFEIELEGSQTLRILCYEKCYNKTKIPKEDGESTDRLMGKGQVQLDPQALQDRDWQRTVIAMNGIEVKLSVKFNSREFSLKRMPSRKQTGVFGVKIAVVTKRERSKVPYIVRQCVEEIERRGMEEVGIYRVSGVATDIQALKAAFDVNNKDVSVMMSEMDVNAIAGTLKLYFRELPEPLFTDEFYPNFAEGIALSDPVAKESCMLNLLLSLPEANLLTFLFLLDHLKRVAEKEAVNKMSLHNLATVFGPTLLRPSEKESKLPANPSQPITMTDSWSLEVMSQVQVLLYFLQLEAIPAPDSKRQSILFSTEV
notes: also called normal Bcr protein; wild-type Bcr
binding result: binds
